Results: PMC3670040, “Structure of Lipid Kinase p110β/p85β Elucidates an Unusual SH2-Domain-Mediated Inhibitory Mechanism” (Molecular Cell, 2011)

Target: T1, Mouse His6-p110β(1-1064) (mouse, UniProt Q8BTI9 1-1064)
T1 construct: p110β catalytic subunit of class IA PI3K, mouse, residues 1-1064 (full length); N-terminal extension from pFastBac-HTb printed as [residues removed]; (His6 tag and TEV site); this molecule is used there; also called full-length mouse p110β; p110β catalytic subunit; source: Sf9 cells, recombinant baculoviruses, coinfected with the regulatory subunit; complex purified (HisTrap, Q-Sepharose, …)
Assay: crystal structure; mouse His6-p110β(1-1064)/p85β-icSH2(423-722) complex at 4 mg/ml with 20 mM sodium phenyl phosphate and 150 μM GDC0941; 12% PEG 3350, 0.1 M potassium citrate pH 6, 0.4 M lithium sulfate, 22°C; 3.3 Å; one 1:1 complex in the asymmetric unit
Details: both partners purified

T1 sequence (Q8BTI9 whole entry, the tested form may be a part): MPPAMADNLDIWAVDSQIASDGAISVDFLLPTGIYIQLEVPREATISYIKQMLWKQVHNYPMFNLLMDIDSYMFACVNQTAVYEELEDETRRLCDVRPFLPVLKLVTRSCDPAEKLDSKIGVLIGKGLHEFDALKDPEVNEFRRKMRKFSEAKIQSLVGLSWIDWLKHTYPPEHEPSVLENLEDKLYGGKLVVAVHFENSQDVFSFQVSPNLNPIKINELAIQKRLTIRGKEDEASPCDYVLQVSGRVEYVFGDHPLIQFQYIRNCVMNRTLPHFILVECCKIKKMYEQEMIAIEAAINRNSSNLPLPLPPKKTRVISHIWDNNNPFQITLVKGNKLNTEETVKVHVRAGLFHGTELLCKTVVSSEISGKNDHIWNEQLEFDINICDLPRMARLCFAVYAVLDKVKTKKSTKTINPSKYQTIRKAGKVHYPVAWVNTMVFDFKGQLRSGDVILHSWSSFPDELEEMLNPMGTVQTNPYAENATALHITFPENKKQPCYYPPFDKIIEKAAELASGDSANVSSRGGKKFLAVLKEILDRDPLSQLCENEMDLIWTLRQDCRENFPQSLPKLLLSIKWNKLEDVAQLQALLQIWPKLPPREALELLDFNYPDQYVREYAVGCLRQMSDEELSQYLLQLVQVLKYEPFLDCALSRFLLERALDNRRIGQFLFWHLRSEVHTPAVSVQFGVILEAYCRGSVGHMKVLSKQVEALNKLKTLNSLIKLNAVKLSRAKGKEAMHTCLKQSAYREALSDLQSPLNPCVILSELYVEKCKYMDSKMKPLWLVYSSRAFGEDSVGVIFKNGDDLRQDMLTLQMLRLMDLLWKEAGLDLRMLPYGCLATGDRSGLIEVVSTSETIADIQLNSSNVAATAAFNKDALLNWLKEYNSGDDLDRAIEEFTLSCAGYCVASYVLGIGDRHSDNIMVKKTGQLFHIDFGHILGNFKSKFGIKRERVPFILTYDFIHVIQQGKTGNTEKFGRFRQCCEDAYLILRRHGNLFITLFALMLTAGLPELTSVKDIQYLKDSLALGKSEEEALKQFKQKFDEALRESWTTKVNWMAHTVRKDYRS

B1: mouse p85β-icSH2 (residues 423–722) (domain or fragment, UniProt O08908 423-722, looked up)
chain: QQDQVVKEDSIEAVGAQLKVYHQQYQDKSREYDQLYEEYTRTSQELQMKRTAIEAFNETIKIFEEQGQTQEKCSKEYLERFRREGNEKEMQRILLNSERLKSRIAEIHESRTKLEQDLRAQASDNREIDKRMNSLKPDLMQLRKIRDQYLVWLTQKGARQRKINEWLGIKNETEDQYSLMEDEDALPHHEERTWYVGKINRTQAEEMLSGKRDGTFLIRESSQRGCYACSVVVDGDTKHCVIYRTATGFGFAEPYNLYGSLKELVLHYQHASLVQHNDALTVTLAHPVRAPGPGPPSAAR
notes: No tag (pFastBac1); also called p85-icSH2; source: Sf9 cells, recombinant baculoviruses, coinfected with p110β; complex purified (HisTrap, Q-Sepharose, heparin, gel filtration)
B1: binds.
